Assay: yeast display, Sf9 membrane polyspecificity reagent, FACS + sequencing; frameworks hold sequencing errors
In short: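 Galactose-induced (36–48 hours) yeast carrying a synthetic nanobody display library were exposed to 10% biotinylated, detergent-solubilized Sf9 membrane reagent at 4 °C for 1 hour. FACS followed streptavidin microbead enrichment, using low and high (top ~1%) gates for expression (anti-HA) and reagent binding (streptavidin). Colony PCR, MiSeq 2 × 250 sequencing and CDR-length filtering followed. Labels for polyreactivity reflect the gate of origin.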

Sequence | polyreactivity (PSR sort gate)
QVQLVESGGGLVQAGGRLRLSCAASGSIFPYYVMGWYRQAPGKERELVAAISTSDGSTYADSVKGRFTISRDNAKNTVYLQMNSLKPEDTAVYYCAVANVYYVGYDYWGQGTRVTVSS | low polyreactivity
QVQLVESGGGLVQAGGSLRLSCAASGYTSYTYTMGWYRQAPGKDRELVAAISRRSDSTYSDSVKGRVTISRDNAKNSVYLQMNSLKPEDTAVYYCAAVRVSYRSLSKSYYWGQGTQVTVSS | high polyreactivity
QVHLVDSGGGLVLAGGSLRLSCAASGRNFERYAMGWYRKAPGKERELVAAISSSATRTYYADSVKGRFTISRDNAKNTVYLQMNSLKPEDTAVYYCAAKGAARDGSSEYNYWGQGTQVTVSS | high polyreactivity
QVQRVESGGGLVQAGGILRLSCAASGSTFREYTMGWYRQAPGKEKELVAAITNSGGSTYYADSVKGRFTISRDNEKNTVYLQMNSLKPEDTAVYYCAADVGIVDYDYWGQGTQVTVSS | low polyreactivity
QVQLVESGGGLVQAGGSLRLSCAASGRIFYNNAMGWYRQAPGKERELVASITRNGGRTYYADSVKGRFTISRDNAKNTVYLKMNSLKREDTAVYYCAIDYSRGQIRAGAYEYWGQGTQVTVSS | high polyreactivity
QVQLVESRGGLVQAGGSLRLSCAASGSIFGTNAMGRNRQAPGKERELVAAINSGGSTNYADSVKGRFTISRDNAKNTVYLQMNSLKPEDTAVYYCAADEGLWSPSRNAYDYDYWGQGTQVTVSS | low polyreactivity
QVQLVESGGGLVQAGGSLRLSCAASGSIFTYYAMGWYRQAPGKERELVAAINSGGRTNYADSVKGRFTISRDNAKNTVYLQMNSLKPEDTAVYYCAKYGVLQYGYWGQGTQVTVSS | low polyreactivity
QLQLVETGGGLVQAGGSLRLSCAATGSTFQGYPMGWYRQAPGKDRELVAAISWNGGSTYYADSVKGRFTISRDNAKNTVYLQMNSLKPEDTAVYYCAAYSFAYSYNYWGQGTQVTVSS | high polyreactivity
QVQLVESGGGLVQAGGSLRLSCAASGFYGNAMGWYRQAPGKERELVAAITWSGGSTYYADSVKGRFTISRDNAKNTVYLQMNSLKPEDTAVYYCNKLQHRKYNGYDYWGQGTQVTVSS | high polyreactivity
QVQLVESGGGLVQAGGSLRLSCAASGRTFSAYAMGWYRQAPGKERELVAAISTNVGSTYYADSVKGRFTISRDTAKNTVYLQMNSLKPEDTAVYYCAKSWTLSGWNYYYWGQGTQVTVSS | high polyreactivity
QVQLVESGGGLVQAGGSLRLSCAASGSIFSVYAMGWYRQAPGKERELVAAISRGDSTYYADSVKGRFTISRDNAKNTVYLQMNSLKPEDTAVYYCAKAYLRYYDGPYDYWGQGTQVTVSS | low polyreactivity
QVQLVESGGGLVQAGGSLRLSCAASGRIFRINAMGWYRQAPGKERELVASISRRGGNTYYADSVKGRFTISRDNAKNTVYLQMNSLKPEDTAVYYCAADTNQERTFYYWGQGTQVTVSS | low polyreactivity
QVQLVESGGGLVQAGGSLRLSCAASGRIFSKNAMGCYRQQPGKERELVAAISRSGGGTYYADSVKGRFTISRDTAKNTVYLQMNSLKPEDTAVYYCATRYGSWGQGTQVTVSS | high polyreactivity
QVQLQECGGGLVQAGGSLRLTCAASGNIFHADIMGWYRQAPGKERELVARVTDGGSTNYADSVKGRLTISRDNAKNTVYLQMNSLKPEETAVYYCAAIVYPVILTYFDYDYDYFYWGQGTQVTVGS | low polyreactivity
QVQHVESGGGLVQAGGSLRLSCAASGNTFLRYAMGWYIKAPGKERELVAAISRSGGSTYYADSVKGRFTISRDTAKNTVYLQMNSLKPEDTAVYYCAARRSSQPDKGYYYWGQGTQVTVSS | high polyreactivity
QVQLVESGGGLVQAGGSLRLSCAASGTTISNYAMGWYRQAPGKERELVAGIDWSGGSTYYADSVKGRFTISRDNAKNTVYLHMNSLKPEDTAVYYCAKRVWYHGRKLRGYYWGQGTQVTVSS | low polyreactivity
QVQLVESGGGLVQAGGSLRLSCAASGSIFRSYAMGWYRQAPGKERELVAAIRGGGSTNYADSVKGRFTISRDNAKNTVYLQMNSLKPEDTAVYYFAADKKTKVDWGQGTQVTVSS | high polyreactivity
QVQLVESGGGLVHAGGSLRLSCAASGKIFGLYAMGWYRKAPGKERELVAAISYRTDSTYADSVKGRFTISRDNAKNTVYLQMNSLKPEDTAVYYCAADLRVSVRYYYWGQGTQVTVSS | low polyreactivity
QVQLVESGGGFVQAGGSLRLSCAASGSICAGYAMGWYRQAPGKERVLVAGITIGGSTNYADSVKGRFTISRDNAKNTVYLQMNSLKPEDTAVYYCAARRVQSVYRIPRRYHSYGYWGQGTQVTVSS | high polyreactivity
QVQLVESGGGLVQAGGSLRLSCAASGRTFILYTMGWYRQAPGKERELVAAITTGGSTSYADSVKGRVTISRDNAKNTVYLQMNSLKPEDTAVYYCNALSRLRYKPRLYDYWGQGTQVTVSS | low polyreactivity
QVQLEESGGGLVQAGGSLRLSCAASGGTLRYYVMGSYRQAPGKERELVAAISWSGDSTYYADSVKGRFTISRDNAKNTVYLQMNSLKPEDTAVYYCAATYYLTYYYGQANHGYDYWGQGTQVTVSS | low polyreactivity
QVQLVESGGGLVQAGGSLRLSCAASGSTFYGYGMGWYRQAPGKERELVAAITGSGDTTYYADSVKGRFTISRDNAKNTVYLQMNSLKPEDTAVYYCAADLTVRYDYWGQGTQVTVSS | low polyreactivity

Sequence | polyreactivity (PSR sort gate)
QVQLVESGGGIVQAGGSLRLSGAASGFTLTSYAMGWYRQPHGNERELVAGISRGGITYYADSVKGRFTISSDNAKNTVYLQMNSLKPEDTAVYYCATEASFYDPDMYPYGYDYWGQGTQVTVSS | high polyreactivity
QVHLVESGGGLVQAGGSLRLSCAASGFTFVRYAMGWYRQAPGKERELVASISYSGGSTYYADSVKGRFTISRDNAKNTVYVQMNSLKPEATAVYYCAAVIYRGYYYWGQGTQVTVSS | high polyreactivity
QVQLVESGGGLVQAGGSLRLSCAASGSTVKTYAMGWYRQAPGKERELVAAISWSGGSTYYADSVKGRFTISRDNAKNTVYLQMNSLKPEDTAVYYCNAGWGYPSPWFIGEYWGQGTQVTVSS | low polyreactivity
QVQLVESGGGLVQAGGSLRLSCAASGFIFTGYAMGWYRQAPGKERELVAAISSSGGRTYYADSVKGRFTISRDNAKNTVYLQMNSLKPEDTAVYYCAAYYITFIGRGYGYWGQGTQVTVSS | high polyreactivity
QVQLVESGVGLVQAGGSLRLSCAASGIFYGYAMGWYRQAPGKERELVAAISSGGSTYYADSVKGRFTISRDNAKNTVYLQMISLNPEDTAVYYCAAGKKRPGWTFPRYYWGQGTQVTVSS | high polyreactivity
QVQLVESGGGLVQAGGSLRLSCAASGRIFLYYAMGWYRQAPGKERDFVAAITYIGGSTYYADSVKGRFTISRDNAKNTVYLQMNSLKPEDTAVYDCATDGYRIDVYHPVYRYDYWGQGTQVTVSS | low polyreactivity
QVQLVESGGGLVQAGGSLLLSGAPSGRTFPYYAMGWYRQAPGKERELVARISSDGSTTYADSVKGRITISRDHAKNTVYLQMNSLKPEDTAVYYSAADVTFAGLKYIFDYWGPGTQVTVSS | low polyreactivity
QVQLVESGGGLVQAGGSLRLSCAASGRTFVYYAMGWYRQAPGKEREFVAAISRSGGHTSYADSVKGRFTISRDNAKNTVYLQMNSLKPEDTAVYYCAAEKRTQPTSREYYWGQGTQVTVSS | high polyreactivity
QLQLVESGGGLVQAGGSLRLSCAASGSTFREYAMGWYRQAPGKERELVAAISSGDSTNYADSVKGRFTISRDNAKNTVYLQMNSLKPEDTSVYYCAADAQGAAAVQNDYWGQGTQVTVSS | low polyreactivity
QVQRVESGGGLVQAGCRLRLSCAASGTFFMGWYRQAPWKSRELVAGISISDGSTYYADSVKGRLTISRDNAKNTVYLQMKSLKPEDTAVYYFAAVFNPTTGFDYWGQGTQVTVSS | low polyreactivity
QVQLVESGGGLVQAGGSHRLSCAASGSNAMGWYRQAHGKERELVAVITGGGSTHYADSVKGRYTISRDNAKNTVYLLMNSLKAEVTAVYYCAAVYWHSRGKFADIAVDYWGQGTQVTVSS | low polyreactivity
QVQLVESGGGLVQAGRSLRLSCAASGRNFTYYAMGWDRQAPGKERELVAAISGSAGSTYYADSVKGRFTISRDNAKNTVYLQMNSLKPEDTAVYYCNAVLVRQRDRGGYWGQGTQVTVSS | high polyreactivity
HVQLVESGGGLVQAGGSLRLSCPASGRTFADNAMGWYRQAPGKERELVASISSGTSTNYADSVKGRFTISRDNAQNTVYVQMNSLKPEDTAVYYCNADGPIWYTAVLGVGRYYGWTDYWGQGTQVTVSS | low polyreactivity
QVQLVESGGGLVQAGGRLRLSCAASGSTFLVYAMGWYRQAPGKERELVAVIRWRDGSTYYADSVKGRFTISRDNAKNTVYLQMNSLKPEDTAGYYCAAVYWGEEYEYWGQGTQVTVSS | low polyreactivity
QVQLVESGGGLVQAGGSLRLSCAASGFTFKYYAMGWYRQAPGKERELVAAITSGGSTYADSVKGRFTISRDNAKITVYLQMNSLKPEDTAVYYCAASIDSGKWLGRRYDYWGQGTQVTVSS | low polyreactivity
QVQLVESGGGLVQAGGSLRLSCAASGSTFNRYAMGWYRQAPGKERELVAAISWSGTRTYYADSVKGRFTISRDNAKNTVYLQMNSLKPEDTAVYYCAARRLYAGHQYDYWGQGTQVTVSS | high polyreactivity
QVQLVESGGGLVQAGGSLRLSCAASGFTFNFYAMGWYRQAPGKERELVASITSSGARTYYADSVKGRFTISRDNAKNSVYLQMNSLKPEDTAVYYCAARVYRYSASRAYDYWGQGTQVTVSS | high polyreactivity
QVQLVESGGGLVQAGGSLRLSCAGSGRTVANNAMGWYRQAPGKERELVAAISNGDSPYADSVKGRFTISRDNAKNTVYLQLNSLKPEDTAVYYCATRTQEDYTGDYWGQGTQVTVSS | low polyreactivity
QVQLVESGGGLVQAGGSLRLSSAASGRIFDDNAMGWYRQAPGKERELVAAITGPDDSTDYADSVKGRFTISRDNAKNTVYLQMNSLKPEDTAVYYCAKDAGYWYYWNGYWGQGTQVTVSS | high polyreactivity
QVQLVESGGGLVQAGGSLRLSTAASGIIFWYNAMGWYRQAPGKERELVAAISTGGSTNYADSVKGRFTISRDNAKNTVYLQMNSLKPEDTAVYYCAADWHRSYGAYDYWGQGTQVNVSS | low polyreactivity
QVQLVESGGGLVQAGGSLRLSCAASGFTIRSYVMGWYRQAPGKERELVAAIRRSGGSTYYADSVKGRFTISRDNAKNTVYVQLNSLKPEDTAFYYCNAPHHRYDWGQGTQVTVSS | high polyreactivity

From the nanobody polyreactivity screen of Harvey et al. (2022)
